This note sets out measurements from paper PMC8476842, “Uncovering and Engineering a Mini-Regulatory Network of the TetR-Family Regulator SACE_0303 for Yield Improvement of Erythromycin in Saccharopolyspora erythraea”.

The target of data set [1] is T1, SACE_0303 (TetR-family regulator) (Saccharopolyspora erythraea) (UniProt A4F6H8).
T1 sequence: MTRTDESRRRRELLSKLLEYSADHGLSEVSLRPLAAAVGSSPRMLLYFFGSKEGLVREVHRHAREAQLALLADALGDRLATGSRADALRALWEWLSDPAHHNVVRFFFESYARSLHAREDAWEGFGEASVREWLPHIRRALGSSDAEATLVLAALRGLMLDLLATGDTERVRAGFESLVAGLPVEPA
Description: EMSA. Particulars: EMSA: 10 mM Tris-HCl pH 7.5, 60 mM KCl, 50 mM EDTA (so in the source), 10 mM DTT, 5 mM MgCl2, 10% glycerol, 150 ng probe, 20 uL, 30 C 20 min; footprint at 20 C. (Mobility shift assays separate free from complexed probe on a gel.)

In data set [2] the target is T1, SACE_0303 (TetR-family regulator) (Saccharopolyspora erythraea). Kind of data set: DNase I footprinting. The following applies: EMSA: 10 mM Tris-HCl pH 7.5, 60 mM KCl, 50 mM EDTA (so in the source), 10 mM DTT, 5 mM MgCl2, 10% glycerol, 150 ng probe, 20 uL, 30 C 20 min; footprint at 20 C.
In data set [3] the target is T2, SACE_0303 (TetR-family regulator) (Saccharopolyspora erythraea, UniProt A4F6H8 1-187).
T2 sequence: T1 sequence
Kind of data set: EMSA; EMSA: 10 mM Tris-HCl pH 7.5, 60 mM KCl, 50 mM EDTA (so in the source), 10 mM DTT, 5 mM MgCl2, 10% glycerol, 150 ng probe, 20 uL, 30 C 20 min; footprint at 20 C. The following applies: protein: recombinant; tags: His6 (pET28a, NdeI/HindIII); chain copies: 2; blunt.

Turning to “AGCTTTGACAGGTCCGCCACGCGTCCCCCTACTCGACGACCACGCAATGGGCGAACAATATAGGAAGGATCAAGAGGTTGACATCGCCTCGTCGAGCCAACGAACCTGTGAACATCTGCATGTTGACAAGATCAACGGCGGCTACCTACTGTGGTGGCCCAGTGACGGGTTGCCGCACATCGCGCTGGGGAGATTCTTTGAATTTCGCCCGTAGCACCGACCTGGAAAGCGAGCAAATGCTCCGGTGAATGGGATCAGTGATTC (double strand) [PeryAI]”, the binding result in data set [1] was “no binding”. As for “CGACCTCGGCCGCCTGCTGTCCTGCCGGCGGGCGGCACGTGCCGCGGTCCGCTGAAACGGTTGCGAAAACGGGAAATCACCGCTGAGGGTGGCCGCCGCCGGCGGATTGCGCCGCCGAGATCGGCATGCCTAGGCTTCCACCACCGCTCCATCACGTGCGGGGTCCGGGTCCGGGAGCAGCCGATGCCGCAAGACGCGTGTACTTCCGCCCGGCAGAACACGTCCTCG (double strand) [P3156]”, in data set [1], the binding entry is reported as “binds”.

With “CGCTGGATCCTACCAACCGGCACGATTGTCCAGCCCACAACAGCATCGCGGTGCCACGTGTGGACCGCGTCGGTCAGATCCTCCCCGCACCTCTCGCCAGCCGTCAAGATCGACCGCGTGCACCTGCGATCGCCGATCAACCGCGACTAGCATCGGGCGCAAGCCGCCACTCGAACGGACACTCGC (double strand) [PermE]”, in data set [1], the binding result is given as “no binding”. “GGCGACGGCGGCTTTCGTCGGTGCGGGTCATCCGGATATCGTACTGAAACGACTGTTTCAGGAGGGCGCATGGGCGGCATCGAGATCCGCACCGGCCCGC (double strand) [P0303-0304]”: the binding result in data set [1] and in data set [2] was “binds” each time.

B1: P0303-0304-56 bpM (dsDNA)
DNA 1: GGGTCATCCGGATATCGTAAAGCTTGGACTGGAATTCGAGGGCGCATGGGCGGCAT
DNA 2: ATGCCGCCCATGCGCCCTCGAATTCCAGTCCAAGCTTTACGATATCCGGATGACCC
For B1, the binding result in data set [3] is listed as “no binding”.
